Tested on: K4 kissing-loop RNA reporter
Assay: apparent KD of K4 kissing-loop reporter; higher = weaker reporter binding
Conditions: Eterna round: R107
Protocol: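 RNA-MaP round R107: designed RNA switches with theophylline, tryptophan, arginine or FMN aptamers are transcribed on-chip within common flanks. They are titrated with a labelled K4 kissing-loop RNA reporter in RNA-MaP buffer (100 mM Tris pH 7.5, 80 mM KCl, 4 mM MgCl2), without ligand or with the indicated ligand. Median apparent KD per design.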

[1] = input ligand: theophylline 20 uM
[2] = input ligand: tryptophan 2.4 mM
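Further: bound reporter read as fluorescence of individual clusters on recovered sequencing chips by microscopy, with normalized cluster intensities fitted with a binding model.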

| Sequence | apparent KD of K4 kissing-loop reporter (input ligand: FMN 200 uM) | apparent KD of K4 kissing-loop reporter (input ligand: arginine 13.2 mM) | apparent KD of K4 kissing-loop reporter (input ligand: none) | apparent KD of K4 kissing-loop reporter [1] | apparent KD of K4 kissing-loop reporter [2] |
| --- | --- | --- | --- | --- | --- |
| CAACCCUGCUUUUUCGAGUUUUAGGGAUGACGAGGACCGGUACGGCCGCCACUCGACUACACUGUUCAGUGAUGUUGAACGGCGG [Teveza] | 165 nM | 60 nM | 116 nM | 148 nM | 267 nM |
| CAACCGUAACACGAUACCAGCCUAGAAGCCAGUGAUGUUGGCCUUUUUUCGGAAAUGAAAGGCCCUUGGCAGCGUGGAUAAAAUG [Lelabiised] | 451 nM | 464 nM | 505 nM | 379 nM | 501 nM |
| CAAUGAGUAUAAGAUGAUAUCAUAACAGAAGGAGCGAGUGAUAACUCAGGUAGGUCGCUGAAUUUAUCGAGUGAUGUUCGAUAAA [whbob_SS_Arginine_A_sa116] | 205 nM | 154 nM | 187 nM | 166 nM | 184 nM |
| CAAUGAGUAUAAGAUGAUAUCAUAACAGAAGGAGCGAGUGAUAACUCAGGUAGGUCGCUGAAUUUAUCGAGUGAUGUUCGAUAGA [whbob_SS_Arginine_A_sa117] | 202 nM | 162 nM | 226 nM | 193 nM | 176 nM |
| CAGCAGAGUGAUGUUCUGCUUACUGCGGAUACCAGCUUUGCCAGAGGCCCUUGGCAGCCGCACGGCUCAGUGAUGUUGGGUCACG [Same State Theophylline A GF 13] | 296 nM | 293 nM | 361 nM | 323 nM | 301 nM |
| CAGGCCGAGUGAUGUUCGGUCUGAGUGAUAAAGGAUAUAAGGGAUUUUAGAAGGUUAUCUAAACAGACCAAACAUCUAUCCACUC [theeternabot_exclusion_KL_FMN_A_16] | 221 nM | 128 nM | 138 nM | 145 nM | 122 nM |
| CAUACGCAUGGAGGAUAUGAGAUUACUCAUAUCAUUUAAUAUUCUCAGUGAUGUUGAGAUUUAGGCUCAGAAGGCCAUGUGUAUG [Ex FMN B 14] | 271 nM | 362 nM | 412 nM | 421 nM | 375 nM |
| CAUACGCAUGGAGGAUAUGAGAUUACUCAUAUCAUUUAAUAUUCUCAGUGAUGUUGAGAUUUGGGCUCAGAAGGCCAUGUGUAUG [Ex FMN B 15] | 479 nM | 304 nM | 339 nM | 343 nM | 317 nM |
| CAUACGCAUGGAGGAUAUGAGAUUUCUCAUAUUAUUUAAUAUUCUCAGUGAUGUUGAGAUUUAAACUCAGAAGGCCAUGUGUAUG [Ex FMN B 6] | 388 nM | 235 nM | 239 nM | 279 nM | 242 nM |
| CAUGGACUUCCAGUGUAUCCAUGACUGGAUACCAGUCAGGAAACUGACCCUUGGCAGCCAGAACUGGAAGUGAUGUUUCCAGUAA [Design8] | 227 nM | 214 nM | 244 nM | 244 nM | 240 nM |
| CAUGGGCCAGUGAUGUUGGCGCGCACGGGACGAGGACCGGUACGGCCGCCACUCGCUUUUGCUCUUAUCGGGAUAAGAAAACCGA [Enveerorle] | 453 nM | 134 nM | 567 nM | 309 nM | 635 nM |
| CCAACAACGAGUGAUGUUCGUUGAUCUGAAGGAGCGUCAAUAAUGACAGGUAGGUCGCAGAUAAUUGGAUAUAGGGCAAUAGCUC [Same State Arginine A GF13] | 109 nM | 116 nM | 125 nM | 115 nM | 102 nM |
| CCAGGACGAUGAGGAGGAUGAAUUACUGAAGGAGCGCAUAUGGUUGCAGGUAGGUCGCGGUGAACAAGUAUAGUGAUGUUAUACC [SSArgA.T] | 339 nM | 290 nM | 368 nM | 343 nM | 445 nM |
| CCAUCGCUAUUCGAUACCAGCUACUUAGUGAUGUUAAGUUUAAAUCCACUGUAGGUGGAAAGCCCUUGGCAGCGAAUAGUGAUGG [Theophylline B K4 24] | 315 nM | 274 nM | 306 nM | 157 nM | 245 nM |
| CCAUCGCUAUUCGAUACCAGCUACUUAGUGAUGUUAAGUUUAUAUCCACUGUAGGUGGAAAGCCCUUGGCAGCGAAUAGUGAUGG [Theophylline B K4 25] | 436 nM | 412 nM | 491 nM | 223 nM | 425 nM |
| CCCUUAGACUCGGCCGCCACUCGUACCGAGAGCAUGCCACCCAUUAGUGAUGUUAAUUUGUCCUUGAGGACCGGGAGCCUAGGAA [theeternabot_exclusion_KL_Trp_B_44] | 941 nM | 789 nM | 980 nM | 986 nM | 822 nM |
| CCGAAGAACCAGUGAUGUUGGUUGACUAGACAGGAUAUGAGCAACAUCAGAAGGGUCUGGCUUCGGGAGAGAGUCGCGCUGACCU [Anditebier] | 208 nM | 350 nM | 388 nM | 28.7 nM | 453 nM |
| CCGAAGAACCAGUGAUGUUGGUUGACUAGACAGGAUAUGAGCAACAUCAGAAGGGUCUGGCUUCGGGAGUAGGUCGCGCUGACCC [Diarrebi] | 482 nM | 231 nM | 624 nM | 1260 nM | 231 nM |
| CCGACUGCAGGAAGGAGCGGCGGUUGGAGUGAUGUUCCGGGUAGUGAUGUUACCAAGAUCCGCCAGGUAGGUCGCCUGUUGCUCG [Same State Arginine B GF11] | 134 nM | 117 nM | 129 nM | 122 nM | 120 nM |
| CCGAGCCUGACGAAAGUCAGGCUCUGCGAGCGAGGACCGGUACGGCCGCCACUCGGUGCAGUGAUGUUGCAUGGCCGCAAGGCCG [#2 Exclusion - Tryptophan A Attempt #22 (HarryS)] | 156 nM | 223 nM | 240 nM | 261 nM | 312 nM |
| CCGCUGUACUGCAUUAAGUGAUGUUUAGUGCAGGAUAUCUGGAAACAGAGAAGGGCAUGUACUCGACUUAGCCACUACAGCGGUU | 221 nM | 123 nM | 142 nM | 119 nM | 129 nM |
| CCUAUCUCAUACGAUACCAGUCAACGAGUGAUGUUCGAAUAAAUAAAUUUGCCAAAUAAUGACCCUUGGCAGCGUAUGGGAUAGG [Ex Theophylline B K4 15] | 299 nM | 313 nM | 329 nM | 302 nM | 247 nM |

| Sequence | apparent KD of K4 kissing-loop reporter (input ligand: FMN 200 uM) | apparent KD of K4 kissing-loop reporter (input ligand: arginine 13.2 mM) | apparent KD of K4 kissing-loop reporter (input ligand: none) | apparent KD of K4 kissing-loop reporter [1] | apparent KD of K4 kissing-loop reporter [2] |
| --- | --- | --- | --- | --- | --- |
| CCUAUCUCAUACGAUACCAGUCAAUUAAAUUUUAUAAAUGCCAUCACCGAGUGAUGUUCGGACCCUUGGCAGCGUAUGGGAUAGG [Ex Theophylline B K4 2] | 222 nM | 175 nM | 198 nM | 310 nM | 187 nM |
| CCUUCUCUUGAUAGUGAUGUUGUCGAGGACAAGGAUAUCAUCUCAAUGAGAAGGUGUCCUUGAUAACAUGGAGGUCUGAAACAGA [Omei KL FMN A Exc C v10] | 468 nM | 394 nM | 333 nM | 365 nM | 420 nM |
| CGAAGAAAGGUAUGUGGGAUCUGCGCGUAACGAGGACCGGUACGGCCGCCACUCGACGUCGCAUACGGCCCAGUGAUGUUGGGUG [theeternabot_sameState_KL_Trp_A_14] | 74 nM | 55.9 nM | 75.4 nM | 74.9 nM | 53.4 nM |
| CGAGUGAUGUUCGAAGAGUUGUUGAGCGAUACCAGCCAGGAAACUGGCCCUUGGCAGCGUAAUAAAUAAAUAAAUAAAUGAUCAC [whbob_Ex_Theo_A_th61] | 364 nM | 464 nM | 410 nM | 635 nM | 333 nM |
| CGCAAGCAGCCAGUGAUGUUGGCCGCCUUGCGAGGACCGGUACGGCCGCCACUCGAAGGCGGCUACUGAUAAACCGUCUAACGGA [KL-XTryp-A9] | 112 nM | 96.3 nM | 105 nM | 95.4 nM | 274 nM |
| CGCAGUGAUGUUGCGAAUAUAAUCACGGAAGGAGCGCGUGAAAACGCAGGUAGGUCGCCGUGUGGUAUGAUGGAAACAUCGUACC [Arginine A K4 12] | 222 nM | 207 nM | 243 nM | 206 nM | 191 nM |
| CGCAGUGAUGUUGCGAGUUUAUUCAGGGAAGGAGCGCCACAGAUGGCAGGUAGGUCGCCCACGCAGUGAUGUUGUGUAUUCGGGU [Exclusion Arginine A GF 3] | 141 nM | 128 nM | 127 nM | 128 nM | 116 nM |
| CGCAGUGAUGUUGCUUAUAUUCUUGGUUAACGAGGACCGGUACGGCCGCCACUCGAUUUCUAACUAUUCCAGUGUUAAUUUGAGU [JR_ExcTryptoA_Sub006] | 444 nM | 488 nM | 502 nM | 564 nM | 306 nM |
| CGCGCCCAGCCGGAUACCAGUGACCCGCUGGGAACCGCGGGCCCAGAGUGAUGUUCGGGACACCCUUGGCAGCCGCCUGGGCGGC [#2 Same State - Theophylline B Attempt #9 (HarryS)] | 1370 nM | 229 nM | 999 nM | 717 nM | 766 nM |
| CGCGCGCGCGCGCGCGCGCGCGCGAAUGAUACCAGUAUAUAAGAAUACCCUUGGCAGCAUAAGAAAGAUAUAGUGAUGUUGUAUA [SSTheophA.B] | 285 nM | 150 nM | 269 nM | 422 nM | 231 nM |
| CGCGUGGGUUUGAGAGGGUUUGCGCGAAGUGAGGAUAUUUAGGGAGAAAGAAGGCACUAUAAAAUAUAGUGAUGUUAUAUAAGGG [SSFMNA.J] | 877 nM | 186 nM | 170 nM | 242 nM | 126 nM |
| CGUACGGUUUCUUUCUUUCCGUACGAGUGCCGAGGACCGGUACGGCCGCCACUCGCUACAGCCUAGUGAUGUUAGGAACGUGUUA | 87.2 nM | 73.1 nM | 81.8 nM | 87.3 nM | 54.7 nM |
| CGUUUAGUGAUGUUAAGCGUCCACUACGAUACCAGAACUAUAACCUUCCCUUGGCAGCGUUUAUAUUGUAACUCAUGUGUUAAUU [theeternabot_exclusion_KL_Theo_A_11] | 520 nM | 296 nM | 474 nM | 503 nM | 468 nM |
| CGUUUAUAGCAGGAUACCAGUACCCAUAAAGUACGUUAAUAGUAGAGUGAUGUUCUAAAGUACCCUUGGCAGCUUCCAGUGAGUG [ExTheophylB.S] | 102 nM | 157 nM | 142 nM | 165 nM | 85.3 nM |
| CGUUUAUAGCAGGAUACCAGUACCCAUAAAGUACGUUAAUAGUAGAGUGAUGUUCUAAAGUACCCUUGGCAGCUUCCCGUGACCC [ExTheophylB.W] | 103 nM | 160 nM | 133 nM | 182 nM | 79.6 nM |
| CUCACAGUGAUGUUGUGGGCCGAGAGUGAUACCAGCCGUAUUUGUGGCCCUUGGCAGCGCAAAAGCCGAGUGAUGUUCGAAUCGG [Same State Theophylline A GF 24] | 211 nM | 196 nM | 207 nM | 190 nM | 192 nM |
| CUCGAGUGAUGUUCGAUUAUUUAUACAGAUACCAGUGAAUUUUAACACCCUUGGCAGCUGGUUGUAUCUUUGUAAUUUACACAAG [JR_ExcTheophyA_Sub005] | 120 nM | 168 nM | 113 nM | 151 nM | 93.6 nM |
| CUCGUGGGUUUGAGAGGGCUUGUGGGAAGUGAGGAUAUUUAGGGAGAAAGAAGGCACUAUAGAAUAUAGUGAUGUUAUGUAAGGG [SSFMNA.O] | 466 nM | 954 nM | 492 nM | 180 nM | 348 nM |
| CUGGGUUGACGAAAAGUCAACAAACGAGAAGGAGCGCACGAAAGUGCAGGUAGGUCGCUCAGUCCAGUGAUGUUGGAACAUCCAG [#SwitchBubble 8 #K4Late] | 664 nM | 498 nM | 462 nM | 508 nM | 436 nM |
| CUGGGUUGACGAAAAGUCAACAAACGAGAAGGAGCGCACGAAAGUGCAGGUAGGUCGCUCAGUCCAGUGAUGUUGGAUCAUCCAG [#SwitchBubble 9 #K4Late] | 265 nM | 763 nM | 687 nM | 840 nM | 323 nM |
| CUGGGUUGACGAAAAGUCAACAAAUGAGAAGGAGCGCACGAAAGUGCAGGUAGGUCGCUCAAUCCAGUGAUGUUGGGUCAUCCAG [#SwitchBubble 13 #K4Late] | 856 nM | 612 nM | 993 nM | 951 nM | 731 nM |

— the supplement of paper PMC9170038
